According to patent US20100278829A1, “DUAL INHIBITION OF IMMUNOPHILIN/CYCLOPHILIN FAMILY MEMBERS AND EMMPRIN IMMUNOGLOBULIN RECEPTOR SUPERFAMILY MEMBERS” (priority 2009, published 2010):

Biological target: T1, CypA (Homo sapiens, UniProt P62937)
T1 construct: CypA was purified as previously described; made in house; host or cells: E. coli BL21 (DE3)
Assay: NMR titration of 15N-CypA, binding isotherms
Settings: chemical shift changes, 25° C.
Method: NMR sample preparation, spectroscopy, and data analysis. All NMR spectra were collected at 25° C. on a Varian 600-, 720- , 800-, or 900-MHz spectrometer in 50 mM NaPO4, pH 6.5, 150 mM NaCl, and 50 mM imidazole supplemented with 7% D2O. There were only modest changes to the resonance positions with imidazole present (data not shown), yet imidazole did increase the lifetime of each sample slightly and, thus, was maintained in all samples. Samples utilized for assignment purposes contained 0.5-1 mM protein, while all samples utilized for titration purposes contained 0.5 mM protein with the indicated final concentration of the titrant. All spectra were processed using NMRPipe software65 and analyzed using CCPNmr software.66 Unless otherwise noted, all pulse sequences were obtained from standard Varian Biopack libraries. Transverse relaxation optimized spectroscopy (i.e., TROSY-based) HSQC experiments were used only when noted.
NMR titration experiments were first conducted using 15N-CypA with unlabeled CD147, and chemical shift changes were only observed for extracellular recombinant CD147 constructs that included the membrane-proximal region of CD147 residues 206-214. […] However, both extracellular cyclophilin ligands of CD147, CypA and CypB, are known to readily traverse the membrane. […]

T1 sequence (P62937 whole entry): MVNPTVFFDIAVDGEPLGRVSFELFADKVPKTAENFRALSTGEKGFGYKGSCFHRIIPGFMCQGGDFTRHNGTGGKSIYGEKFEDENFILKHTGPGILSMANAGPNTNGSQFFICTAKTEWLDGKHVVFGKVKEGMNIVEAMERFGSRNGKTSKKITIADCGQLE

B1: CD147: extracellular recombinant CD147 constructs that include membrane-proximal residues 206-214 (protein, UniProt P35613 138-323, looked up)
extracellular domain: EPGTVFTTVEDLGSKILLTCSLNDSATEVTGHRWLKGGVVLKEDALPGQKTEFKVDSDDQWGEYSCVFLPEPMGTANIQLHGPPRVKAVKSSEHINEGETAMLVCKSESVPPVTDWAWYKITDSEDKALMNGSESRFFVSSSQGRSELHIENLNMEADPGQYRCNGTSSKGSDQAIITLRVRSHLA
modifications: extracellular domain
In the case of B1, the Kd is reported as > 1000 µM.
